The record followed here is the supplement of paper PMC12455559.

± gives the standard deviation of the averaged measurements.

Data set [1] in a line: purified protein yield per well (BCA); higher = higher soluble expression. In outline:
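Candidate enzymes were expressed in E. coli C41(DE3) in 2 mL autoinduction cultures with 100 µg/mL kanamycin, at 37 °C for 2 h and then 18 °C for 40 h. Cells were lysed, and protein was bound to Ni-charged magnetic beads and released by SUMO protease cleavage on an OT-2 robot. The read-out is purified protein yield per well, measured with the Pierce Rapid Gold BCA kit. Values below 25 ug (0.1 mg/mL) are below the detection threshold.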

Data set [2] can be described thus: melting temperature (DSF); higher = more thermostable. An outline of the steps: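 On a Bio-Rad CFX96, fluorescence of 45 μL enzyme (0 to 0.3 mg/mL) mixed with 5 μL 5X Sypro Orange in sealed PCR plates was followed from 25 °C through 250 cycles of 0.3 °C, with a 0.3 °C/s ramp. The enzymes had been expressed in E. coli C41(DE3), taken up on nickel beads and released by SUMO protease. Melting temperature, measured by differential scanning fluorimetry, is the value given.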

Data set [3] is described as follows: PET hydrolysis, aromatic products released after 48 h (umol product/mg enzyme); higher = more PET depolymerization activity. An outline of the steps: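 The measure of PET hydrolysis activity is aromatic product released into the supernatant, given per mg enzyme. Nickel-purified, SUMO-cleaved enzyme without tag was added at 5 μg (50 μL) to 3.5 mg amorphous PET film or crystalline PET powder in 450 μL of citrate, phosphate or glycine buffer spanning pH 4.5 to 8.5. After 48 h at 40 or 60 °C in sealed plates without shaking, absorbance at 260 and 280 nm was taken against buffer blanks.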

Where [4] appears, read: substrate: aFilm, 40 °C, pH 4.5.
Setting [5] is: substrate: aFilm, 40 °C, pH 5.5.
[6] abbreviates: substrate: aFilm, 40 °C, pH 6.5.
[7] abbreviates: substrate: aFilm, 40 °C, pH 7.5.
Where [8] appears, read: substrate: aFilm, 60 °C, pH 4.5.
Where [9] appears, read: substrate: aFilm, 60 °C, pH 5.5.
Where [10] appears, read: substrate: aFilm, 60 °C, pH 6.5.
Setting [11] is: substrate: aFilm, 60 °C, pH 7.5.
Setting [12] is: substrate: cryPow, 40 °C, pH 4.5.
Where [13] appears, read: substrate: cryPow, 40 °C, pH 5.5.
The mark [14] stands for this setting: substrate: cryPow, 40 °C, pH 6.5.
[15] abbreviates: substrate: cryPow, 40 °C, pH 7.5.
Where [16] appears, read: substrate: cryPow, 60 °C, pH 4.5.
The mark [17] stands for this setting: substrate: cryPow, 60 °C, pH 5.5.
The mark [18] stands for this setting: substrate: cryPow, 60 °C, pH 6.5.
The mark [19] stands for this setting: substrate: cryPow, 60 °C, pH 7.5.

“QSAEASPPHGPDPTEESITAPRGPFEIDQKTVSRASVRGFGGGTIYYPTDTSEGTFSAVAIAPGYTAGQESLAWLGPRLASQGFVVFTIDTLTRYDQPDSRSRQLLAALDHLTDDSDVADRVDPARRGVMGHSMGGGGSLQAALDDPDLKAAIPMTPWHTTKDFSGVRTPTLIIGAQNDTVAPVSQHAKPFYESLPDDPGKAYLELAGASHFAPNVDNTTIARYSIAWLKRFLDDDTRYEQFLCPPPPDPAISDHQSTCPY [TEP105]”: the “purified protein yield per well” value in data set [1] came to 207 µg. The sequence also yielded a melting temperature in data set [2] of 61.6 C. The PET hydrolysis in data set [3] (setting [4]) was below 3; in data set [3] (setting [5]) it was below 3; in data set [3] (setting [6]), 5 ± 1.4; in data set [3] (setting [7]), 7.5 ± 0.71; in data set [3] (setting [8]), below 3; in data set [3] (setting [9]), below 3. Moreover, the PET hydrolysis is below 3 in data set [3] (setting [10]); 10 ± 4.2 in data set [3] (setting [11]); below 3 in data set [3] (setting [12]); 15.5 ± 0.71 in data set [3] (setting [13]); 46.5 ± 0.71 in data set [3] (setting [14]); 59.5 ± 0.71 in data set [3] (setting [15]). Also, the PET hydrolysis was below 3 in data set [3] (setting [16]), 10.5 ± 0.71 in data set [3] (setting [17]), 101 ± 1.4 in data set [3] (setting [18]) and 118 ± 13 in data set [3] (setting [19]).

In the case of “ADNPYQRGPDPTRNSVAAENGPFANTSVSVPSGNGFNGGRIYYPTDTSQGTFGAIAISPGYTALFSAELAWMGPWLASHGFVVIGIETNSRNDFDTARGTQLLAALDYLTQQSTVRNRVDPNRLAVAGHSMGGGGALSAAMRRPSLKAVAGITPYSPSSNLANDRVPTMIISGQADTVVTPSYALGLYNSIPATTESVYLEVAGGDHGFMVGRSNPVLIRTMLPFLKTFVDNDARYTQFLCPLVDNSGVVTYRNTCPLLPPPTGTPTPTPTTPGPTTPPPTTPPPGSASEIVGTQSGRCVDVPNSSRTNGTRVQLYDCNRQTNQTWTYNTSTKQLRVYGDMCLDAAGTGNSAAVQIYACHSQTNQQWNINTNGTISGVQSGRCLDAWNTTNGAQIQLYDCHGQTNQQFRLAAR [TEP115]”, the “purified protein yield per well” value in data set [1] worked out at 113 µg. In data set [2], this sequence registered a melting temperature of 60.4 C. Further, the PET hydrolysis is 4 in data set [3] (setting [12]); 8 in data set [3] (setting [13]); 7 in data set [3] (setting [14]); 3 in data set [3] (setting [15]); below 3 in data set [3] (setting [16]); below 3 in data set [3] (setting [17]). Also, the PET hydrolysis in data set [3] (setting [18]) and in data set [3] (setting [19]) was below 3 throughout.

Regarding “ADNPYQRGPDPSRTSVATETGPFANASVSVPTGYGFNGGRIYYPTDSSQGTFGAIAISPGYTALFSAELAWMGPWLASHGFVVIGIETNSRNDFDTARGTQLLAALDYLTQQSPVRDRVDPNRLAVAGHSMGGGGALSAAVRRSSLKAAVGIAPYSPSSNLANDRVPTMVFSGQADTVVTPSYAIGLYNSLPTTTESVYLEVAGADHGFMVGRSNPVMIRTMLPFVKMFIDNDTRYSQFLCPLLDSSGVVTYRSTCPLLPTTPTTPPVNPTTPPVNPTVSPTGAPGSASEIVGVQSGRCVDVPNASRTNGTRVQLYDCNRQSQQSWTYTSGRQLRVYGDMCLDAAGSGNGAAVQIYACHSQTNQQWNVNSNGTISGVQSGRCLDVWSTANGAQVQLYDCHGQTNQRFNVMPLAR [TEP092]”, the “purified protein yield per well” value in data set [1] came to 154 µg. The sequence also had a melting temperature in data set [2] of 60.4 C. Also, the PET hydrolysis in data set [3] (setting [12]) was 5; in data set [3] (setting [13]), 10; in data set [3] (setting [14]), 8; in data set [3] (setting [15]), 3; in data set [3] (setting [16]), below 3; in data set [3] (setting [17]), below 3. Moreover, the PET hydrolysis in data set [3] (setting [18]) and in data set [3] (setting [19]) was below 3 throughout.

“ADNPYQRGPDPTPASVSANRGTFATAQISVPAGNGFGGGVIYHPTDTSQGTFGAIAVVPGYTATWAAEGAWMGHWLASFGFVVIGIDTNSRNDWDTARGTQLLAALDYLTQRSPVRDRVDANRTAVMGHSMGGGGAMHAALQRPSLKAAIGLAPFSPSQNLTTTRVPTMLLAGQSDTTTTPASILNLYNGIPAATEKAYLELTGAGHGFPTSNNPTMMRNVIPWLKIFVDSDTRYTQFLCSLSNWDGIRAYQSTCPLVPSPVPTTTSTTSTTTTISTTTTTPAPGDACSATYRTTNSWPGGYQAEVTVTAGNTAVNGWNVQWTLGSGQTVTQVWNGTLNVSGSTASVRNASYNGSLQANTSTTFGFIGGGTPPTSSLSCTSP [ESM035]”: in data set [1], the “purified protein yield per well” value was determined as 510 µg. The same sequence came in with a melting temperature in data set [2] of 57.4 C. Also, the PET hydrolysis in data set [3] (setting [4]), in data set [3] (setting [5]), in data set [3] (setting [6]), in data set [3] (setting [7]), in data set [3] (setting [8]) and in data set [3] (setting [9]) was below 3 in each case. In addition, the PET hydrolysis was below 3 in data set [3] (setting [10]); below 3 in data set [3] (setting [11]); below 3 in data set [3] (setting [12]); below 3 in data set [3] (setting [13]); 7 ± 2.8 in data set [3] (setting [14]); 23.5 ± 0.71 in data set [3] (setting [15]). The PET hydrolysis in data set [3] (setting [16]), in data set [3] (setting [17]), in data set [3] (setting [18]) and in data set [3] (setting [19]) was below 3 in each case.

For “ASYQRGPDPTVQSVAANRGTFATAELTVPRGFGFNGGKIYYPTDTSQGTWGAIAAVPGYTASWAAEGAWMGPWLASFGFVVIGIDTNSPTDYDTARGTQLLAALDYLTGQSAVRDRVDPNRLAVLGHSMGGGGAISAAMRRPSLKAAVPLAPASFSQNLSNVRVPTLIMGARDDGTITPSSIDGLWSSKPATTQGARVELASGGHGFPTWGNSQVTRREIPWLKIFLDNDNRYAQFLCPSLADSTGVSRYISQCPYGSTGQPSSPPVSSPPAAGGPVRAVGAGKCLDVPNASQTNDTQLAIWDCNGGSNQQWTYTSGKQLRVYGGKCLDASGHGMSNGTRVIIWDCGGGANQQWNVNANGTITGVESGLCLDVTGAATANGALVDLWACNNGGNQQWRLG [ESM097]”, the “purified protein yield per well” value in data set [1] is 81.7 µg. The sequence also had a melting temperature in data set [2] of 58.3 C. Moreover, the PET hydrolysis is below 3 in data set [3] (setting [12]), below 3 in data set [3] (setting [13]), below 3 in data set [3] (setting [14]) and 4 in data set [3] (setting [15]).
